Legend:
[1] = system: CHO cells; assay: Confocal immunofluorescence colocalization of AGT with mitochondria (Mitotracker) in transfected CHO cells; type: cell-based, Chinese hamster; details: transiently transfected CHO cells; for Pearson Rr, AGT + Mitotracker: fixed 72 h after transfection, mean ± S.E.
Description: (§1) Chinese hamster ovary (CHO) cells (ATTC, Rockville, MD USA) were grown in alpha-minimal essential medium (α-MEM, Lonza, Köln, Germany) supplemented with glutamine, penicillin/streptomycin and 5% fetal bovine serum. Cell transfections were performed using AGT cDNA variants (AGT-LRM or AGT-LRM-SKL) subcloned in pCIneo plasmids (Promega) with Transfast reagent (Promega, Madison, WI, USA), following manufacturer’s guidelines. After 24 h, cells were passed to plates containing 13 mm glass coverslips for immunofluorescence studies. Mitochondria in half the coverslips were labeled by incubation with Mitotracker (CMXRos, Invitrogen, Carlsbad, CA, USA) at the end of the culture. Cells were fixed with 2% paraformaldehyde 72 h after transfection and immunofluorescence was performed as previously described. Images were acquired with a laser scanning confocal microscope (Olympus Inverted IX81, Tokyo, Japan) using a 60× objective with immersion oil.
(§2) For quantitative immune-colocalization, the system was optimized to detect two fluorescent signals in one specimen: one in the green channel detector for protein of interest AGT-LRM or AGT-LRM-SKL and the other in the red channel, for either mitochondria labeled with mitotracker or peroxisomes labeled with peroxisomal membrane protein 70 (PMP70) antibody. When the two were seen to overlap (colocalization), it was assumed to be due to fluorescently labeled molecules binding to very close or indeed identical spatial positions. Colocalization events (or the lack thereof) were analyzed quantitatively with FluoView software (Olympus, Tokyo, Japan) and ImageJ software (NIH, Bethesda, MD, USA) with the JACoP plugin, based on a global statistic approach that conducts an intensity correlation coefficient-based examination. The Fisher transformation was applied to data obtained from ImageJ as well when calculating the mean values of colocalization coefficients and constructing the respective 95% confidence intervals. Descriptive statistical analysis of colocalization parameters (Pearson’s coefficient, Manders’ overlap coefficient and split Manders’ coefficients) was performed.

[2] = system: CHO cells; assay: Confocal immunofluorescence colocalization of AGT with peroxisomes (PMP70) in transfected CHO cells; type: cell-based, Chinese hamster; details: for amount of protein localized in peroxisomes / Pearson Rr, AGT + PMP70: transiently transfected CHO cells; for Pearson Rr, AGT + PMP70: fixed 72 h after transfection
Description: as §1, §2

Molecule	colocalization with mitotracker in the mitochondria [1]	Pearson Rr, AGT + Mitotracker [1]	Pearson Rr, AGT + Mitotracker ([1]; SEM)	% Coloc (Manders' m), AGT + PMP70 ([2]; CHO cells, mean ± S.E., given as fraction, split Manders' M1 in situation 2, Manders' overlap R in situation 4, SEM)	amount of protein localized in peroxisomes [2]	Pearson Rr, AGT + PMP70 ([2]; mean ± S.E.)	Pearson Rr, AGT + PMP70 ([2]; mean ± S.E., SEM)
AGT-LRM: human AGT variant p.P11L/p.G170R/p.I340M, mistargeting PH1 variant (protein, UniProt P21549 1-392, looked up, variant P11L G170R I340M) Alanine--glyoxylate …: MASHKLLVTPLKALLKPLSIPNQLLLGPGPSNLPPRIMAAGGLQMIGSMSKDMYQIMDEIKEGIQYVFQTRNPLTLVISGSGHCALEAALVNVLEPGDSFLVGANGIWGQRAVDIGERIGARVHPMTKDPGGHYTLQEVEEGLAQHKPVLLFLTHGESSTGVLQPLDGFRELCHRYKCLLLVDSVASLGGTPLYMDRQGIDILYSGSQKALNAPPGTSLISFSDKAKKKMYSRKTKPFSFYLDIKWLANFWGCDDQPRMYHHTIPVISLYSLRESLALIAEQGLENSWRQHREAAAYLHGRLQALGLQLFVKDPALRLPTVTTVAVPAGYDWRDIVSYVMDHFDIEIMGGLGPSTGKVLRIGLLGCNATRENVDRVTEALRAALQHCPKKKL	92%	0.90	0.90 ± 0.12	0.17 ± 0.15	17%	0.39	0.39 ± 0.15
AGT-LRM-SKL: AGT-LRM with PTS1 mutated to the consensus –SKL C-terminal tripeptide (protein, UniProt P21549 1-392, looked up, variant P11L G170R I340M K390S L392L) Alanine--glyoxylate …: MASHKLLVTPLKALLKPLSIPNQLLLGPGPSNLPPRIMAAGGLQMIGSMSKDMYQIMDEIKEGIQYVFQTRNPLTLVISGSGHCALEAALVNVLEPGDSFLVGANGIWGQRAVDIGERIGARVHPMTKDPGGHYTLQEVEEGLAQHKPVLLFLTHGESSTGVLQPLDGFRELCHRYKCLLLVDSVASLGGTPLYMDRQGIDILYSGSQKALNAPPGTSLISFSDKAKKKMYSRKTKPFSFYLDIKWLANFWGCDDQPRMYHHTIPVISLYSLRESLALIAEQGLENSWRQHREAAAYLHGRLQALGLQLFVKDPALRLPTVTTVAVPAGYDWRDIVSYVMDHFDIEIMGGLGPSTGKVLRIGLLGCNATRENVDRVTEALRAALQHCPKSKL	40%	0.47	–	–	84%	0.79	–

Reference: PMC4384115, “Molecular Recognition of PTS-1 Cargo Proteins by Pex5p: Implications for Protein Mistargeting in Primary Hyperoxaluria” (Biomolecules, 2015)
